Assay results reported in patent US20260217849A1 (SHANGHAI HUAOTA BIOPHARMACEUTICAL, published 2026).

How the values were obtained:
[1] = target: T1, human CD73 antigen protein (ACRO Biosystems, Catalog No. CD3-H52H7) (human, UniProt P21589 27-547); assay: SPR BIAcore 8k, CD73 captured as ligand, 900698 added first (competitor), then 900725
T1 construct: Bought protein; also called Human CD73 dimer protein; human CD73 protein
T1 sequence (looked up): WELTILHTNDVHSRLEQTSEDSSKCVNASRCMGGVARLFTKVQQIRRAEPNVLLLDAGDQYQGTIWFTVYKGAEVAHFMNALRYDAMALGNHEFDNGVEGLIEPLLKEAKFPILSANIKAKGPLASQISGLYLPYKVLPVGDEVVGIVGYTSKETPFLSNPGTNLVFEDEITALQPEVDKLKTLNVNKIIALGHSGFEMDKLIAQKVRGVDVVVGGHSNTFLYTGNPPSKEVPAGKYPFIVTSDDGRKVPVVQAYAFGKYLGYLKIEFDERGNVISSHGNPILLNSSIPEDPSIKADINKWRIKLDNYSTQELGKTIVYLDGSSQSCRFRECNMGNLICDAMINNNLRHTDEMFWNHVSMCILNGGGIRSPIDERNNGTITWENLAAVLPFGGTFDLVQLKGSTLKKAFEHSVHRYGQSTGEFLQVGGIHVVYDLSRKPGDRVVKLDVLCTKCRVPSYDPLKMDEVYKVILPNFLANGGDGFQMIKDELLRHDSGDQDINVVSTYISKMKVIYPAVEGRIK
Text: (§1) First, the human CD73 antigen protein (manufacturer: ACRO Biosystems, Catalog No. CD3-H52H7) was captured as a ligand using BIAcore 8k, and then the antibodies were used as analytes.

[2] = target: T1, human CD73 antigen protein (ACRO …); assay: SPR BIAcore 8k, CD73 captured as ligand, analyte 1 buffer, analyte 2 900725
Text: as §1

[3] = target: T1, human CD73 antigen protein (ACRO …); assay: SPR BIAcore 8k, CD73 captured as ligand, analyte 1 buffer, analyte 2 900698
Text: as §1

[4] = target: T1, human CD73 antigen protein (ACRO …); assay: SPR BIAcore 8k, CD73 captured as ligand, 900725 added first (competitor), then 900698
Text: as §1

B1: 900725 (antibody, human IgG1, kappa, L234A L235A, V domains shown)
VH: QVQLVQSGAEVKKPGASVKLSCKASGYTFTSYWIHWVRQAPGQGLEWIGMIHPNSGSTYYNEKFKGRATLTVDKSTSTAYMELSSLRSEDTAVYYCARYYGSDYEWYFDVWGQGTTVTVSS
VL: DIQMTQSPSSMSASVGDRVTITCKASQNVRTAVVWYQQKPGKAPKALIYLASNRHTGVPDRFSGSGSGTDFTLTISSLQPEDFATYFCLQHWNYPYTFGQGTKLEIKR
notes: also called component of the anti-CD73 cocktail antibody
[1]
  Kd: 4.16 nM
  koff: 0.00591 s⁻¹
  kon: 1.42e+06 M⁻¹ s⁻¹
[2]
  Kd: 3.01 nM
  koff: 0.00452 s⁻¹
  kon: 1.5e+06 M⁻¹ s⁻¹

B2: 900698 (antibody, human IgG1, kappa, L234A L235A, V domains shown)
VH: QVQLVESGGGLVKPGGSLRLSCAASGFTFSKYAMSWIRQAPGKGLEWVAEISSGGGYINYADSVKGRFTISRDNAKNSLYLQMNSLRAEDTAVYYCARAIYYYGSSYNYYAMDYWGQGTTVTVSS
VL: DIQMTQSPSSLSASVGDRVTITCRASQDVGTAEAWYQQKPGKAPKLLIYWASTRHTGVPSRFSGSGSGTDFTLTISSLQPEDFATYYCQQYSSYPLTFGQGTKLEIKR
notes: as for B1
[3]
  Kd: 7.3 nM
  koff: 0.00114 s⁻¹
  kon: 156000 M⁻¹ s⁻¹
[4]
  Kd: 12.6 nM
  koff: 0.0017 s⁻¹
  kon: 135000 M⁻¹ s⁻¹
